{
  "source": "paper PMC4632850",
  "about": "(Protein Science : A Publication of the Protein Society, 2015)",
  "key": {"SEC": {"molecular_target": "the molecule itself", "assay": "SEC"}, "[1]": {"molecular_target": "the molecule itself"}, "[2]": {"molecular_target": "T1, phosphorylated neutral trehalase Nth1 (pNth1) (Saccharomyces cerevisiae, UniProt P32356 1-751, phosphorylated (sites not given))", "T1 sequence": "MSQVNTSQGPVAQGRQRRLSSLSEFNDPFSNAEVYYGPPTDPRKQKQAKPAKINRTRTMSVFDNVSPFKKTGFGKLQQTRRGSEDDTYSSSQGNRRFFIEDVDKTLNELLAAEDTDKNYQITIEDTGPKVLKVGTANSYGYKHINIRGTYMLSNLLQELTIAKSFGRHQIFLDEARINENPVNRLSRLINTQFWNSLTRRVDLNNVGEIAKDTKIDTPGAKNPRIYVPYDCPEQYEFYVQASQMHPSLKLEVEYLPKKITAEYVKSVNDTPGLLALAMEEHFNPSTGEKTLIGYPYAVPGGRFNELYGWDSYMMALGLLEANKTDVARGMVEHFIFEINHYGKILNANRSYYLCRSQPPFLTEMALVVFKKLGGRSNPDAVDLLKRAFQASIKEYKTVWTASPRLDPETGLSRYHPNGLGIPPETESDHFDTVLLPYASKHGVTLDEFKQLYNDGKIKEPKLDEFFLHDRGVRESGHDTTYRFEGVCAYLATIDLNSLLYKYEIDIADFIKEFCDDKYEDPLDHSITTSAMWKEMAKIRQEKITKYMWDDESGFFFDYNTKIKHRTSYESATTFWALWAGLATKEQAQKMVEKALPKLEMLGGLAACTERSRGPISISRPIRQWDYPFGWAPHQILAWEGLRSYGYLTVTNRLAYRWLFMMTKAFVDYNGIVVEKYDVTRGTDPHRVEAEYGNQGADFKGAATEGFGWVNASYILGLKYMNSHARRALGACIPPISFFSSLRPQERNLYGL", "assay": "SAXS"}},
  "data": [
    {"binder": "human HtrA3 lacking the N-terminal domain (enzyme) GLHQLSSPRYKFNFIADVVEKIAPAVVHIELFLRHPLFGRNVPLSSGSGFIMSEAGLIITNAHVVSSNSAAPGRQQLKVQLQNGDSYEATIKDIDKKSDIATIKIHPKKKLPVLLLGHSADLRPGEFVVAIGSPFALQNTVTTGIVSTAQREGRELGLRDSDMDYIQTDAIINYGNSGGPLVNLDGEVIGINTLKVTAGISFAIPSDRITRFLTEFQDKQIKDWKKRFIGIRMRTITPSLVDELKASNPDFPEVSSGIYVQEVAPNSPSQRGGIQDGDIIVKVNGRPLVDSSELQEAVLTESPLLLEVRRGNDDLLFSIAPEVVM", "values": [
      {"measurement": "stoichiometry N", "setting": "SEC", "value": 3}
    ]},
    {"binder": "DNA-binding domain of human FoxP1 (domain or fragment) AEVRPPFTYASLIRQAILESPEKQLTLNEIYNWFTRMFAYFRRNAATWKNAVRHNLSLHKCFVRVENVKGAVWTVDEVEFQKRRPQKISGNPSL", "values": [
      {"measurement": "dH (dimer dissociation, van't Hoff)", "setting": "[1]", "value": 23.1, "unit": "kcal•mol‐1"}
    ]},
    {"binder": "yeast 14-3-3 protein Bmh1 (natural protein) MSTSREDSVYLAKLAEQAERYEEMVENMKTVASSGQELSVEERNLLSVAYKNVIGARRASWRIVSSIEQKEESKEKSEHQVELICSYRSKIETELTKISDDILSVLDSHLIPSATTGESKVFYYKMKGDYHRYLAEFSSGDAREKATNASLEAYKTASEIATTELPPTHPIRLGLALNFSVFYYEIQNSPDKACHLAKQAFDDAIAELDTLSEESYKDSTLIMQLLRDNLTLWTSDMSESGQAEDQQQQQQHQQQQPPAAAEGEAPK", "values": [
      {"measurement": "binding result", "setting": "[2]", "value": "binds"}
    ]}
  ]
}
